The source of these data is patent US20160159919A1 (Chugai, published 2016).

The test concerns the target T1, soluble human EREG fragment having a mature EGF domain structure (R&D Systems cat. no. 1195-EP/CF) (human, UniProt O14944 63-108).
T1 construct: bought; coated on ELISA plates; also called human epiregulin; recombinant human Epiregulin
Description: competitive ELISA on coated soluble human EREG fragment. The method, then: The soluble human EREG fragment having a mature EGF domain structure (the polypeptide of SEQ ID NO: 34 which corresponds to ⁶³Val to ¹⁰⁸Leu) was purchased from R&D Systems (cat. no. 1195-EP/CF). The soluble human EREG fragment was used to coat nunc immunoplates, and after blocking with a BSA-containing solution, the competitive binding reactivity between mouse hybridoma-derived EP27 and the purified humanized anti-EREG antibody was analyzed. Mouse hybridoma-derived EP27 and a purified humanized anti-EREG antibody were added to the plates, and after two hours of incubation, the plates were washed; and an alkaline phosphatase-labeled anti-human IgG antibody (Zymed) was added to each well of the plates and then allowed to react. Each well was washed, and then the amount of bound antibody (A405/655 detection value) was determined by addition of a test reagent, Sigma p-Nitrophenyl phosphate Tablets.
For orientation: An ELISA detects its analyte on a solid surface through an enzyme-linked reagent.

Substitutions are numbered along the chain they refer to.

T1 sequence (O14944 63-108 limits assumed): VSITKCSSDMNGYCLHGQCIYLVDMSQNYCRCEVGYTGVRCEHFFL

B1: H3-G1d/LB-k (antibody, human IgG1, kappa, V domains shown)
VH: QDQLVQSGAEVKKPGASVKVSCKASGFNIKDTYIQWVRQAPGQGLEWMGRIDPLNGNTKYVDKFQGRVTITADTSTNTAYMELSSLRSEDTAVYYCVRSGTLFDFWGQGTLVTVSS
VL: DIQMTQSPSSLSASVGDRVTITCKASQDIHKYIAWYQQKPGQAPRLLIQYTSTLQPGVPSRFSGSGSGTDYTFTISSLQPEDIATYYCLQYDNLRTFGGGTKVEIKR
With B1, the binding result is recorded as “binds”.

B2: H67-G1d/LB-k (antibody, human IgG1, kappa, V domains shown)
VH: B1 VH with N55L, D62P
VL: B1 VL
notes: also called H67-G1/LB-k
In the case of B2, the binding result was “binds”.

B3: H71-G1d/LB-k (antibody, human IgG1, kappa, V domains shown)
VH: B1 VH with D31A, D62P
VL: B1 VL
notes: also called H71-G1/LB-k
Take B3: the binding result is given as “binds”.

B4: H9-G1d/LB-k (antibody, human IgG1, kappa, V domains shown)
VH: B1 VH with D62P, G66D
VL: B1 VL
For the molecule B4, the binding result was “binds”.

B5: H87-G1d/L21-k (antibody, human IgG1, kappa, V domains shown)
VH: B1 VH with N55T, N57Q, V61Q, D62E, Q65E, L102S
VL: B1 VL with K24Q, K106E
On to B5, for which the binding result was “binds”.

B6: HY-G1d/L2-k (antibody, human IgG1, kappa, V domains shown)
VH: B1 VH with D62P
VL: B1 VL with K24S
As for B6, the binding result was “binds”.

B7: H65-G1d/LB-k (antibody, human IgG1, kappa, V domains shown)
VH: B1 VH with N55F, D62P
VL: B1 VL
notes: also called H65-G1/LB-k
Consider B7, for which the binding result is “binds”.

B8: H7-G1d/LB-k (antibody, human IgG1, kappa, V domains shown)
VH: B1 VH with D62P, Q65D
VL: B1 VL
For B8, the binding result is on record as “binds”.

B9: H10-G1d/LB-k (antibody, human IgG1, kappa, V domains shown)
VH: B1 VH with D62P, G66E
VL: B1 VL
Consider B9, for which the binding result is reported as “binds”.

B10: H25-G1d/LB-k (antibody, human IgG1, kappa, V domains shown)
VH: B1 VH with D62P, L102S
VL: B1 VL
Turning to B10, the binding result is recorded as “binds”.

B11: H31-G1d/LB-k (antibody, human IgG1, kappa, V domains shown)
VH: B1 VH with D62E, Q65E
VL: B1 VL
Consider B11, for which the binding result is recorded as “binds”.

B12: H66-G1d/LB-k (antibody, human IgG1, kappa, V domains shown)
VH: B1 VH with N55V, D62P
VL: B1 VL
notes: also called H66-G1/LB-k
In the case of B12, the binding result is “binds”.

B13: H42-G1d/LB-k (antibody, human IgG1, kappa, V domains shown)
VH: B1 VH with V61K, D62P
VL: B1 VL
B13: the binding result is “binds”.

B14: H45-G1d/LB-k (antibody, human IgG1, kappa, V domains shown)
VH: B1 VH with V61T, D62P
VL: B1 VL
As for B14, the binding result is “binds”.

B15: H23-G1d/LB-k (antibody, human IgG1, kappa, V domains shown)
VH: B1 VH with N57S, D62P
VL: B1 VL
notes: also called H23-G1/LB-k
For the molecule B15, the binding result was “binds”.

B16: H43-G1d/LB-k (antibody, human IgG1, kappa, V domains shown)
VH: B1 VH with V61R, D62P
VL: B1 VL
On to B16, for which the binding result is “binds”.

B17: H87-G1d/L37-k (antibody, human IgG1, kappa, V domains shown)
VH: B1 VH with N55T, N57Q, V61Q, D62E, Q65E, L102S
VL: B1 VL with K24Q, F73L, I83F
Regarding B17, the binding result is listed as “binds”.

B18: H57-G1d/LB-k (antibody, human IgG1, kappa, V domains shown)
VH: B1 VH with N55T, D62P
VL: B1 VL
notes: also called H57-G1/LB-k
As to B18, the binding result is “binds”.

B19: H8-G1d/LB-k (antibody, human IgG1, kappa, V domains shown)
VH: B1 VH with D62P, Q65E
VL: B1 VL
For the molecule B19, the binding result is listed as “binds”.

B20: H44-G1d/LB-k (antibody, human IgG1, kappa, V domains shown)
VH: B1 VH with V61S, D62P
VL: B1 VL
B20: the binding result is “binds”.

B21: HY-G1d/L30-k (antibody, human IgG1, kappa, V domains shown)
VH: B1 VH with D62P
VL: B1 VL with D92E
notes: the text names only HY-G1d/L32-k as obtained; also called HY-G1/L30-k
With B21, the binding result was “binds”.

B22: H61-G1d/LB-k (antibody, human IgG1, kappa, V domains shown)
VH: B1 VH with N55K, D62P
VL: B1 VL
notes: also called H61-G1/LB-k
As to B22, the binding result is “binds”.

B23: HY-G1d/L12-k (antibody, human IgG1, kappa, V domains shown)
VH: B1 VH with D62P
VL: B1 VL with Q55E
Turning to B23, the binding result was “binds”.

B24: H40-G1d/LB-k (antibody, human IgG1, kappa, V domains shown)
VH: B1 VH with N57Q, D62P
VL: B1 VL
notes: also called H40-G1/LB-k
As to B24, the binding result is on record as “binds”.

B25: HY-G1d/L32-k (antibody, human IgG1, kappa, V domains shown)
VH: B1 VH with D62P
VL: B1 VL with D92E, N93Q
notes: also called HY-G1/L32-k
For the molecule B25, the binding result is on record as “binds”.

B26: H41-G1d/LB-k (antibody, human IgG1, kappa, V domains shown)
VH: B1 VH with V61H, D62P
VL: B1 VL
For the molecule B26, the binding result was “binds”.

B27: H5-G1d/LB-k (antibody, human IgG1, kappa, V domains shown)
VH: B1 VH with D62P, K63S
VL: B1 VL
For the molecule B27, the binding result is on record as “binds”.

B28: H6-G1d/LB-k (antibody, human IgG1, kappa, V domains shown)
VH: B1 VH with D62P, K63Q
VL: B1 VL
For the molecule B28, the binding result is recorded as “binds”.
